Test results from US20240165282A1, “CONFORMATIONAL CONSTRAINED SOMATOSTATIN RECEPTOR 3 PEPTIDE LIGANDS AND THEIR CONJUGATES AND USES THEREOF” (STARGET PHARMA LTD., priority 2021, published 2024).
Each block holds one binder with its values, some of them ahead of it. *1 amine or outer side, *2 acyl side, *3 side chain or, on linkers, in order; H or OH if unused. Bridges are numbered along the chain shown (N, C = ends). [ ]: non-standard residue; d: D form. The star is where a group is joined. DOTA = O=C(O)CN1CCN(CC(=O)O)CCN(CC(=O)*)CCN(CC(=O)O)CC1; N(2-mercaptoethyl)Gly = O=C(CN(CCS[*:3])[*:1])[*:2]; Glutaryl = O=C(CCCC(=O)[*:2])[*:1]; Orn = NCCC[C@H](N)C(=O)O; Aoc = NCCCCCCCC(=O)O; CPT = camptothecin

Columns and labels:
Test in all cases: 125I-Tyr11-SRIF-14 displacement
[1] = target: human cloned somatostatin receptor 1 (human) (UniProt P30872)
[2] = target: human cloned somatostatin receptor 4 (human) (UniProt P31391)
[3] = target: human cloned somatostatin receptor 2 (human) (UniProt P30874)
[4] = target: human cloned somatostatin receptor 3 (human) (UniProt P32745)
[5] = target: human cloned somatostatin receptor 5 (human) (UniProt P35346)
human cloned somatostatin receptor 5 (human), sequence (P35346 whole entry): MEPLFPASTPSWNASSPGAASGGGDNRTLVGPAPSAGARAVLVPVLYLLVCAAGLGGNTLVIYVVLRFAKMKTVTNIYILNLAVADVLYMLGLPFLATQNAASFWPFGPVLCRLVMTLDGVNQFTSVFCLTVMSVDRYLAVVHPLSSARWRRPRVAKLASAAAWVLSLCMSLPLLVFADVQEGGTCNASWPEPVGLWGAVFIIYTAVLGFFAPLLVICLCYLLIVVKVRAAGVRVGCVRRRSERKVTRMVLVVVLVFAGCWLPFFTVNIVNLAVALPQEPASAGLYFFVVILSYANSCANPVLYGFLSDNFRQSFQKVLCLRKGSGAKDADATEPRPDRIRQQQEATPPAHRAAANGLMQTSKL

human cloned somatostatin receptor 2 (human), sequence (P30874 whole entry): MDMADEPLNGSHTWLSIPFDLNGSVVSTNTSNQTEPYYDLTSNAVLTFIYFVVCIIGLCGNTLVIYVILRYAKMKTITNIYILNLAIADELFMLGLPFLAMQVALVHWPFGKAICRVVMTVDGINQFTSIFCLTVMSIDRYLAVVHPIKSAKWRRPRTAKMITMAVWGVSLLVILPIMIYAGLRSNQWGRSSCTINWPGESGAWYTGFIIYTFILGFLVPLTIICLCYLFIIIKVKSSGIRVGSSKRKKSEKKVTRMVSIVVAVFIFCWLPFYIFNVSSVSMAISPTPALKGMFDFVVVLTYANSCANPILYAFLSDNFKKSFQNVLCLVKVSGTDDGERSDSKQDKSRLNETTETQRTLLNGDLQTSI
human cloned somatostatin receptor 1 (human), sequence (P30872 whole entry): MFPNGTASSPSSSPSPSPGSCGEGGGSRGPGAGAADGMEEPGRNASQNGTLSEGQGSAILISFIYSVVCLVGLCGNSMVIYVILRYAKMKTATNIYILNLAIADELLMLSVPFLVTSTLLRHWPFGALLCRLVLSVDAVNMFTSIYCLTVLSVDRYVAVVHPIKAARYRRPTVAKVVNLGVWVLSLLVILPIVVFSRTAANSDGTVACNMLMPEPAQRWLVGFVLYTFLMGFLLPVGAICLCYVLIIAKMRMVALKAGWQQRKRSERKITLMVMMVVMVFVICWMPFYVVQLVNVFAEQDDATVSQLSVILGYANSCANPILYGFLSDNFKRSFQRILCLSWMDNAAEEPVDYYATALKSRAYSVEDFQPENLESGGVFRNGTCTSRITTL
human cloned somatostatin receptor 4 (human), sequence (P31391 whole entry): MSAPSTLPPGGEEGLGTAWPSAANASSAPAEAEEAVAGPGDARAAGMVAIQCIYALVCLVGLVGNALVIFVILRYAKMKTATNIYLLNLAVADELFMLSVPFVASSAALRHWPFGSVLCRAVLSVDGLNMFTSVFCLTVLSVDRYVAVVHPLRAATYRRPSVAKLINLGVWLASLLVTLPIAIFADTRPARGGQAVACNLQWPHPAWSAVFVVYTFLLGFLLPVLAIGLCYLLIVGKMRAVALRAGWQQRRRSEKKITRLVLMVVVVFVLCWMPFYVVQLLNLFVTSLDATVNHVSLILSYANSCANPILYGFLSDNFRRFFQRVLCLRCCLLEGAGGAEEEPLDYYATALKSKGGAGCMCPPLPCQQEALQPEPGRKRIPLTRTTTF
human cloned somatostatin receptor 3 (human), sequence (P32745 whole entry): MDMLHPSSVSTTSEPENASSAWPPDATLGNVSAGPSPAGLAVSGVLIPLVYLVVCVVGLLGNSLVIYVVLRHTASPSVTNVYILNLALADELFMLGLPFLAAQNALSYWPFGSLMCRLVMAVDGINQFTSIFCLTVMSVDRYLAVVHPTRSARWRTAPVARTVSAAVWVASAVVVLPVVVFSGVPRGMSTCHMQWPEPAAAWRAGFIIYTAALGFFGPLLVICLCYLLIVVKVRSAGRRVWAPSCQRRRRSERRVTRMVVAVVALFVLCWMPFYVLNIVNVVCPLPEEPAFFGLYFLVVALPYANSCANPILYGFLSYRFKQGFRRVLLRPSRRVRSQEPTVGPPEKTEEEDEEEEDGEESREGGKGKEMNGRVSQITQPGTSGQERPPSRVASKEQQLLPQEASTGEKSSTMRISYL

% displacement at 1 nM [1]: 4% | % displacement at 10 nM [1]: 6% | % displacement at 1 nM [2]: 0% | % displacement at 10 nM [2]: 0% | % displacement at 1 nM [3]: 0% | % displacement at 10 nM [3]: 0% | % displacement at 1 nM [4]: 19% | % displacement at 10 nM [4]: 56% | % displacement at 1 nM [5]: 0% | % displacement at 10 nM [5]: 0%
B1: SEQ ID NO: 23 (peptide)
peptide: {DOTA}-[dF]E[Orn]CF[dW]KTF[N(2-mercaptoethyl)Gly]-NH2
modifications: disulfide 4-10
SMILES: C[C@@H](O)[C@@H]1NC(=O)[C@H](CCCCN)NC(=O)[C@@H](Cc2c[nH]c3ccccc23)NC(=O)[C@H](Cc2ccccc2)NC(=O)[C@@H](NC(=O)[C@H](CCCN)NC(=O)[C@H](CCC(=O)O)NC(=O)[C@@H](Cc2ccccc2)NC(=O)CN2CCN(CC(=O)O)CCN(CC(=O)O)CCN(CC(=O)O)CC2)CSSCCN(CC(N)=O)C(=O)[C@H](Cc2ccccc2)NC1=O

% displacement at 1 nM [1]: 1% | % displacement at 10 nM [1]: 15% | % displacement at 1 nM [2]: 5% | % displacement at 10 nM [2]: 8% | % displacement at 1 nM [3]: 0% | % displacement at 10 nM [3]: 0% | % displacement at 1 nM [4]: 65% | % displacement at 10 nM [4]: 94% | % displacement at 1 nM [5]: 6% | % displacement at 10 nM [5]: 16%
B2: SEQ ID NO: 25 (peptide)
peptide: {DOTA}-[dF]RCY[dW]KTF[N(2-mercaptoethyl)Gly]-NH2
modifications: disulfide 3-9
SMILES: C[C@@H](O)[C@@H]1NC(=O)[C@H](CCCCN)NC(=O)[C@@H](Cc2c[nH]c3ccccc23)NC(=O)[C@H](Cc2ccc(O)cc2)NC(=O)[C@@H](NC(=O)[C@H](CCCNC(=N)N)NC(=O)[C@@H](Cc2ccccc2)NC(=O)CN2CCN(CC(=O)O)CCN(CC(=O)O)CCN(CC(=O)O)CC2)CSSCCN(CC(N)=O)C(=O)[C@H](Cc2ccccc2)NC1=O

% displacement at 1 nM [1]: 0% | % displacement at 10 nM [1]: 3% | % displacement at 1 nM [2]: 0% | % displacement at 10 nM [2]: 0% | % displacement at 1 nM [3]: 0% | % displacement at 10 nM [3]: 0% | % displacement at 1 nM [4]: 12% | % displacement at 10 nM [4]: 51% | % displacement at 1 nM [5]: 0% | % displacement at 10 nM [5]: 0%
B3: SEQ ID NO: 27 (peptide)
peptide: {CPT-Aoc}-[dF]RCF[dW]KTF[N(2-mercaptoethyl)Gly]-NH2
modifications: disulfide 3-9

% displacement at 1 nM [1]: 12% | % displacement at 10 nM [1]: 23% | % displacement at 1 nM [2]: 0% | % displacement at 10 nM [2]: 0% | % displacement at 1 nM [3]: 0% | % displacement at 10 nM [3]: 0% | % displacement at 1 nM [4]: 28% | % displacement at 10 nM [4]: 79% | % displacement at 1 nM [5]: 0% | % displacement at 10 nM [5]: 0%
B4: SEQ ID NO: 28 (peptide)
peptide: {Niraparib-Glutaryl}-[dF]RCF[dW]KTF[N(2-mercaptoethyl)Gly]-NH2
modifications: disulfide 3-9

% displacement at 1 nM [1]: 0% | % displacement at 10 nM [1]: 24% | % displacement at 1 nM [2]: 0% | % displacement at 10 nM [2]: 0% | % displacement at 1 nM [3]: 0% | % displacement at 10 nM [3]: 0% | % displacement at 1 nM [4]: 53% | % displacement at 10 nM [4]: 86% | % displacement at 1 nM [5]: 0% | % displacement at 10 nM [5]: 1%
B5: SEQ ID NO: 26 (peptide)
peptide: H-XRCF[dW]KTY[N(2-mercaptoethyl)Gly]-NH2
modifications: disulfide 3-9; not fully specified (residue 1); printed as H-Phe1-Arg2-Cys3-Phe4-D-Trp5-Lys6-Thr7-Tyr8-NTEG9-NH2 (cyclo 3-9)

% displacement at 1 nM [1]: 8% | % displacement at 10 nM [1]: 7% | % displacement at 1 nM [2]: 0% | % displacement at 10 nM [2]: 3% | % displacement at 1 nM [3]: 0% | % displacement at 10 nM [3]: 0% | % displacement at 1 nM [4]: 0% | % displacement at 10 nM [4]: 49% | % displacement at 1 nM [5]: 0% | % displacement at 10 nM [5]: 0%
B6: SEQ ID NO: 22 (peptide)
peptide: {DOTA}-[dF]EE[Orn]CF[dW]KTF[N(2-mercaptoethyl)Gly]-NH2
modifications: disulfide 5-11
SMILES: C[C@@H](O)[C@@H]1NC(=O)[C@H](CCCCN)NC(=O)[C@@H](Cc2c[nH]c3ccccc23)NC(=O)[C@H](Cc2ccccc2)NC(=O)[C@@H](NC(=O)[C@H](CCCN)NC(=O)[C@H](CCC(=O)O)NC(=O)[C@H](CCC(=O)O)NC(=O)[C@@H](Cc2ccccc2)NC(=O)CN2CCN(CC(=O)O)CCN(CC(=O)O)CCN(CC(=O)O)CC2)CSSCCN(CC(N)=O)C(=O)[C@H](Cc2ccccc2)NC1=O
